Measured values: PMC11066147
“And” between values parts separate entries of the source, which are not always exact repeats. Identical values can stand only once. Like-named read-outs stand apart in the source and are kept apart here.

Experiments:
Experiment in all cases: SPR
[1] = molecular target: PfHsp70-1LS (linker switch mutant of PfHsp70-1 carrying the linker of PfHsp70-z) (Plasmodium falciparum) (UniProt Q8IB24)
[2] = molecular target: PfHsp70-zLS (linker switch mutant of PfHsp70-z carrying the linker of canonical Hsp70) (Plasmodium falciparum) (UniProt Q8IC01)
[3] = molecular target: DnaKLS (linker switch mutant of DnaK harbouring the PfHsp70-z linker) (E. coli) (UniProt P0A6Y8)
[4] = molecular target: PfHsp70-1LS (linker switch mutant of PfHsp70-1 carrying the linker of PfHsp70-z) (Plasmodium falciparum) (UniProt Q8IB24); remark: listed apart in the source
[5] = molecular target: PfHsp70-zLS (linker switch mutant of PfHsp70-z carrying the linker of canonical Hsp70) (Plasmodium falciparum) (UniProt Q8IC01); remark: listed apart in the source
[6] = molecular target: DnaKLS (linker switch mutant of DnaK harbouring the PfHsp70-z linker) (E. coli) (UniProt P0A6Y8); remark: listed apart in the source

Row | koff [3] | kon [3] | Substance | Kd [1] | Kd [2] | Kd [3] | Kd [4] | Kd [5] | Kd [6] | koff [1] | kon [1]
1 | – | – | ALLLMYRR (peptide) | 89.4 nM | 36.5 nM | 1950 nM | 99.3 nM | 41.6 nM | 2440 nM | – | –
2 | – | – | ANNNMYRR (peptide) | 778 nM | – | 1770 nM | 977 nM | 3.3 nM | 1690 nM | – | –
3 | 0.0714 s⁻¹ and 0.0903 s⁻¹ and 0.0492 s⁻¹ | – | DnaKLS (linker switch mutant of DnaK harbouring the PfHsp70-z linker) (from UniProt P0A6Y8 1-638) (natural protein) | – | – | – | – | – | – | – | –
4 | – | 45700 M⁻¹ s⁻¹ and 73200 M⁻¹ s⁻¹ and 63200 M⁻¹ s⁻¹ | E. coli Hsp70 (DnaK) (from UniProt P0A6Y8 1-638) (natural protein) | – | – | – | – | – | – | – | –
5 | – | – | NRLLTG (peptide) | 682 nM | 20.7 nM | 891 nM | 174 nM | 21.1 nM | 962 nM | – | –
6 | – | – | NRNNTG (peptide) | 132 nM | 59.5 nM | 716 nM | 466 nM | 25.6 nM | 855 nM | – | –
7 | – | – | PfHsp70-1LS (linker switch mutant of PfHsp70-1 carrying the linker of PfHsp70-z) (from UniProt Q8IB24 1-677) (natural protein) | 42400 nM and 17200 nM and 59000 nM | – | – | – | – | – | 0.0447 s⁻¹ and 0.0633 s⁻¹ and 0.0666 s⁻¹ | –
8 | – | – | Plasmodium falciparum heat shock protein 70-1 (PfHsp70-1) (from UniProt Q8IB24 1-677) (natural protein) | 4700 nM and 3370 nM and 998 nM | – | – | – | – | – | 0.0935 s⁻¹ and 0.0539 s⁻¹ and 0.0392 s⁻¹ | 19900 M⁻¹ s⁻¹ and 16000 M⁻¹ s⁻¹ and 39500 M⁻¹ s⁻¹
